The record followed here is article PMC10141540.

One data set has as its target HU-A (Escherichia coli, UniProt P0ACF0 1-90). Kind of data set: EMSA. (In EMSA bound probe runs differently from free probe, usually more slowly.)
The target in data set [1] is T1, HU-B (Escherichia coli, UniProt P0ACF4 1-90).
T1 sequence: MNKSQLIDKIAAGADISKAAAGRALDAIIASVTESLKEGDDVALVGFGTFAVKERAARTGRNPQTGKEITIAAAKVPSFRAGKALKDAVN
In words: EMSA.

For data set [2], the target named is T1, HU-B. In words: condensate co-localization.

HU-A, sequence (P0ACF0 whole entry): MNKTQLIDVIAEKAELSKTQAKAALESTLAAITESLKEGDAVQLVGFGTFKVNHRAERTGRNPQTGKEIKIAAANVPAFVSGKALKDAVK

B1: 4WJ DNA (structured_DNA)
DNA 1: CCCTATAACCCCTGCATTGAATTCCAGTCTGATAA
DNA 2: GTAGTCGTGATAGGTGCAGGGGTTATAGGG
DNA 3: AACAGTAGCTCTTATTCGAGCTCGCGCCCTATCACGACTA
DNA 4: TTTATCAGACTGGAATTCAAGCGCGAGCTCGAATAAGAGCTACTGT
Consider B1, for which the binding result with HU-A and with HU-B [1] was “binds” each time.

B2: 20 bp dsDNA (dsDNA)
DNA 1: GTTCAATTGTTGTTAACTTG
DNA 2: CAAGTTAACAACAATTGAAC
Turning to B2, the binding result with HU-B [2] is on record as “binds”.
